Assay results reported in IntAct's records for PubMed 11238466.

B1: CARD domain-containing protein E10 (Equine herpesvirus 2 (strain 86/87)), Q66677 (parent)
chain: MAEKYPLQAGDPCVTLTEEDIWDVERLCLEELRVLLVSHLKSHKHLDHLRAKKILSREDAEEVSSRATSRSRAGLLVDMCQDHPRGFQCLKESCKNEVGQEHLVDLLERAFEKHCGDKLTQKWWESGADGRNPRRPPGSEDNSGYTALLPTNPSGGGPSIGSGHSRPRGRDDSGGIGGGVYPFSHGGARVVGGGWGGWGESGGAGRGGSLLSGGHGGHPPHGGPGGGGRDYYGGGGSGYYESIPEPANFPNSGGGGRGGGVRYDAGGDGRLGGLPPDPQEVDDPSLSVQGRGGPAPDPPSPPLRTRRFFCC
partner: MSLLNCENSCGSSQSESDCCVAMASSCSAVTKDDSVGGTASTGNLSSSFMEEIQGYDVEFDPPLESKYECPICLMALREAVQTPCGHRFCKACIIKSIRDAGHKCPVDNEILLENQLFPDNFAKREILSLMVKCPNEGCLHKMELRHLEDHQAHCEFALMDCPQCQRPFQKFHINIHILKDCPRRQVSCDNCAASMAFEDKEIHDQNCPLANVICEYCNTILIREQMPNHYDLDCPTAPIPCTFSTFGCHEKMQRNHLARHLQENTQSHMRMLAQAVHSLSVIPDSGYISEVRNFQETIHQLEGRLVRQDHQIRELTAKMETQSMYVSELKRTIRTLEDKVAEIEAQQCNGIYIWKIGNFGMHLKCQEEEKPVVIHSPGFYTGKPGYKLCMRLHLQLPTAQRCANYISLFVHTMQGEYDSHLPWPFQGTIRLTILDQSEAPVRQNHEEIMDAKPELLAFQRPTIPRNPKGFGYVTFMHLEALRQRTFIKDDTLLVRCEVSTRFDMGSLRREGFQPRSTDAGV
B2: CARD domain-containing protein E10 (Equine herpesvirus 2 (strain 86/87)), Q66677 (parent)
chain: B1 chain
partner: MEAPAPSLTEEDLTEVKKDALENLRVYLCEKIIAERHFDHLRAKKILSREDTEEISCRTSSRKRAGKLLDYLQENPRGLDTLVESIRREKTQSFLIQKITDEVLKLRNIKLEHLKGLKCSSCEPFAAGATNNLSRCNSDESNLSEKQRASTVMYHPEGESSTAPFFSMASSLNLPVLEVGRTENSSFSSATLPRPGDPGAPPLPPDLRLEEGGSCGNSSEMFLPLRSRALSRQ

Variants of: B1
Details: with traf6_human TRAF6, Q9Y4K3

Variant | effect of a mutation on the interaction
P278G;E280A | decreasing interaction

Variants of: B2
Details: with bcl10_mouse Bcl10, Q9Z0H7

Variant | effect of a mutation on the interaction
L49R | decreasing interaction
